{
  "source": "paper PMC2848394",
  "origin": "cited, not measured here",
  "molecular_target": "BMP-2 (Homo sapiens) (UniProt P12643)",
  "sequence (P12643 283-396)": "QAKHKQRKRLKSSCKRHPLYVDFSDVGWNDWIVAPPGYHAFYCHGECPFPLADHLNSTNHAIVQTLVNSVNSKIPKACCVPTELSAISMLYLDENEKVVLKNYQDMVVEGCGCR",
  "experiment": "Biacore SPR",
  "data": [
    {"substance": "Chordin (from UniProt Q9H2X0)", "values": [
      {"measurement": "Kd", "result": 12, "unit": "nM"}
    ]}
  ]
}
